From PMC4383704 (Cancer research, 2015) come the findings set out here.

The target of this experiment is mouse uPA (Mus musculus, UniProt P06869). Description: ELISA.
Chain of mouse uPA (P06869 21-433): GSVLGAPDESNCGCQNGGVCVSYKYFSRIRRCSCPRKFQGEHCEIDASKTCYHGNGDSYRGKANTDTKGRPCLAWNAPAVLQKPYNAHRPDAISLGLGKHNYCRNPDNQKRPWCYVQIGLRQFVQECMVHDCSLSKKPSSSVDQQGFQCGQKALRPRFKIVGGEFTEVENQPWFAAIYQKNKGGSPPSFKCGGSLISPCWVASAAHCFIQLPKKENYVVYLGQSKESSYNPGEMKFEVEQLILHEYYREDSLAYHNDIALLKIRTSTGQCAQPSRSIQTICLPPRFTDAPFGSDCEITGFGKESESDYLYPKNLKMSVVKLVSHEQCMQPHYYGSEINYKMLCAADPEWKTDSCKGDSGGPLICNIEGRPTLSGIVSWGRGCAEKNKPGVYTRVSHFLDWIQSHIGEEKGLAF

B1: U33 Fab (Fab, V domains shown)
VH: EVQLVQSGGGLVKPGRSLRLSCTASGFTFGDYAMSWVRQAPGKGLEWVGFIRSKAYGGTTEYAAVKGRFTISRDDSKSIAYLQMNSLKTEDTAVYYCIRGANWNWGQGTLVTVSS
VL: EIVLTQSPLSLPVTPGEPASISCRSSQTLMNRNGNNFLDWYLQKPGQSPQLLIYLGSNRAPGVPDRFSGSGSGTDFTLKISRVEAEDVGVYYCMQRIEFPYTFGQGTKLEIK
For B1, the binding result is on record as “no binding (tested: 1 μM)”.
